Test results from the supplement of paper PMC10567573.

B1: FAM107A (parent)
chain: LQRVLEHRRRNQLIKKKKEELEAK

Variants of: B1
Test: protein stability index of a GFP-peptide fusion (GPS, HEK-293T) (PSI 1-6); higher = more stable
Settings: c terminus: a fixed tail appended
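Note: lentivirally expressed fusions sorted by FACS into six bins by GFP to DsRed ratio, PSI derived from sequencing read proportions per bin multiplied by bin number.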

Protein stability index: each site, then its substitutions
L1: I 2.73; G 4.37; M 3.64; F 3.13; P 4.66; W 2.56; A 4.61; D 5.36; Y 3.02; T 4.72; Q 5.11; K 4.85; E 4.79
I14: R 3.66; P 3.31; S 3.92; L 3.24; Y 3.28; M 4.54; V 4.25; N 3.74; T 3.71; H 3.44; E 4.18; Q 3.62
R8: A 3.43; E 4.32; Q 3.38; H 2.89; M 3.38; P 3.45; N 3.53; K 3.82; T 3.87; W 1.68; I 2.42
K17: T 4.38; W 3.74; Q 3.8; G 4.27; A 3.44; V 3.25; F 3.73; I 2.58; E 4.31
V4: G 3.52; T 3.92; A 4.09; H 3.68; Q 4.61; M 3.1; W 2.09; S 3.69; E 4.49
K18: Y 3.11; H 3.67; V 3.21; N 3.41; C 3.37; P 4.37; F 4.52; L 2.81; W 3.1; D 4.4; I 2.74
H7: M 3.15; I 3.06; K 1.82; P 3.4; R 3.19; N 3.67; C 3.37; L 3.34; A 3.67; Y 1.69; F 3.1; Q 3.75; D 4.04
L13: F 3.83; G 4.31; D 3.29; P 4.07; S 3.72; M 3.83; A 3.51; N 3.6; K 3.43; T 3.32; H 4.18; Q 3.73
K24: I 3.57; Y 2.62; Q 3.9; V 3.91; W 2.88; F 3.75; M 3.3; A 3.62; D 3.89; S 3.97; P 3.44; C 4.22; H 3.33; G 3.63; E 4.35
Q2: C 2.98; M 2.78; N 4.13; D 3.25; I 1.8; F 2.16; E 3.89; R 3.67; P 3.98; G 4.38; V 2.41
R9: I 2.72; S 4.03; G 4.14; L 1.72; C 3.23; Y 1.84; K 3.76; M 2.77; D 3.96; H 3.65; V 2.16
K16: C 3.26; M 3.09; Y 2.41; E 3.94; A 4.15; I 3.28; R 3.04; T 3.85; G 4.52; S 4
N11: W 1.93; S 3.6; A 2.24; V 3.25; C 2.83; D 3.56; Q 3.09; Y 2.97; E 4.16; I 2.97
K15: S 3.86; H 4.23; D 3.61; Y 3.51; L 3.84; M 3.98; R 3.34; P 4.18; C 3.52; E 4.74; T 3.87; Q 3.7
E22: S 2.96; M 2.83; G 3.33; Y 3.26; V 2.88; P 2.77; A 3.44; N 2.82
